The values below come from patent US20140315822A1 (INSTITUT PASTEUR, published 2014).

Assay [1] concerns the target VIR13 (Neurovita 1) (rabies virus). Briefly: method not restated in the table; ITC per paragraph 50.
Assay [2] shares this target.

Where two headings read alike, the source gives them in different places.

B1: PDZ domain of the human PTPN4 protein (other)
chain: SSPEKPTPNGGIPHDNLVLIRMKPDENGRFGFNVKGGYDQKMPVIVSRVAPGTPADLCVPRLNEGDQVVLINGRDIAEHTHDQVVLFIKASCERHSGELMLLVRPN
notes: domain: PDZ domain
For the molecule B1, the Kd (usually the concentration at which binding is half-saturated) in assay [1] was determined as 560 µM.

B2: PDZ domain of the human MAST2 protein (other)
chain: MRPPIIIHRAGKKYGFTLRAIRVYMGDSDVYTVHHMVWHVEDGGPASEAGLRQGDLITHVNGEPVHGLVHTEVVELILKSGNKVAISTTPLEN
The molecule B2 yielded an equilibrium dissociation constant (Kd) in assay [2] of 1.26 µM.
